Literature values as cited in publication PMC3018525.
Like-named read-outs stand apart in the source and are kept apart here.

Experiments:
EGF (Homo sapiens) [1] = molecular target: EGF (Homo sapiens) (UniProt P01133)
EGF (Homo sapiens) [2] = molecular target: EGF (Homo sapiens) (UniProt P01133); remark: listed apart in the source

Chain of UniProt P01133 (P01133 971-1023): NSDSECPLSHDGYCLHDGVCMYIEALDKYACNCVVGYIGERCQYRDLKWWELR

Kd (EGF (Homo sapiens) [1]) | Kd (EGF (Homo sapiens) [2]) | Substance
2 nM | – | EGFR (low-affinity) (from UniProt P00533)
– | 0.3 nM | EGFR (high-affinity) (from UniProt P00533)
